Data reported in the DeepSol protein solubility set.

Assay: soluble on expression in E. coli; label from the status in PepcDB or PDB records
With “MTQANLSETLFKPRFKHPETSTLVRRFNHGAQPPVQSALDGKTIPHWYRMINRLMWIWRGIDPREILDVQARIVMSDAERTDDDLYDTVIGYRGGNWIYEWATQAMVWQQKACAEDDPQLSGRHWLHAATLYNIAAYPHLKGDDLAEQAQALSNRAYEEAAQRLPGTMRQMEFTVPGGAPITGFLHMPKGDGPFPTVLMCGGLDAMQTDYYSLYERYFAPRGIAMLTIDMPSVGFSSKWKLTQDSSLLHQHVLKALPNVPWVDHTRVAAFGFRFGANVAVRLAYLESPRLKAVACLGPVVHTLLSDFKCQQQVPEMYLDVLASRLGMHDASDEALRVELNRYSLKVQGLLGRRCPTPMLSGYWKNDPFSPEEDSRLITSSSADGKLLEIPFNPVYRNFDKGLQEITDWIEKRLC” the “soluble on expression in E. coli” value was “soluble”. For “MAHHHHHHMRNIVQKYLQRNSTKLFNRTSVFNLYKKCNFSGYKIYSDGLVHSEFSTELKTVNEVIKMPIYRILDTNGHLLDGHEAPFKDEEVLKIYKDMVEFSIWDEIFYGIQRQGRISFYIVNEGEEGLQFGMGKALSVDDHLYCQYRETGVLLSRGFTYTDILNQLFGTKYDEGKGRQMCICYTKKDLNIHTITTPLGSQLSHAAGCGYALKLKNQKAVAVTYCGDGSSSEGDFYAALNFASVRQSQTMFVCKNNLYAISTSIKDQYRGDGIAPRALALGIESIRVDGNDLFASYLATKKLRDICIQESKPVFIEFMSYRYGHHSTSDDSSLYRPKEENEAWRQEGVHPISRIFLYLKNKNLYSEKEDQEHRKSVKENVLKELKKYESVKRYNIVGGLFEDVYHEEDWNIKEQRENFEQFFKENKHNYDTSKFER”, the “soluble on expression in E. coli” value was “soluble”. For “MVDGKHRMVYNITRFSCPTFSLSASAAAVAGRLTPAVPQNTLSRKSCYGAATSAPSSSYNVMYQQQEDTGIDAFAQFGQQSQQYHPSPELSEQINASKCSPYLTEILVGCEQLIAEGEEDSPTWISAIRQRFEDPQMDEVSKKIGVKLIIEMAFTMEPNQFRTADPQNTFSNLLKTLSYEVKDFLRVFIVPTLGEYHEGRKQLENDSRVYMAVFYAEVFVKLTLDNGSRFDKIGAALADQIEEILKFQPKDEYMKCLLRAFKVAGAELDTSEDLKLRADHILTIMGGYAKGSPLLGDSVKAQIFSLIECRTRGWDRAAARGPVRSSAGAGGGGGCVADRGEHDSSFDDSTDNDLTEEERQFLESHLEQVESRRGAEEDYDEQEMMKEFGKFVKEELQQAELKSTSEMLQKLEIEKDTAGAATETDETTPKTEEK”, the “soluble on expression in E. coli” value was “not soluble”. In the case of “MPANARSHAVLTTESKVTIRGQTTIPAPVREALKLKPGQDSIHYEILPGGQVFMCRLGDEQEDHTMNAFLRFLDADIQNNPQKTRPFNIQQGKKLVAGMDVNIDDEIGDDE”, the “soluble on expression in E. coli” value is reported as “soluble”. For “MALTLAKNQTISLEKTAGTGLKKVSMGLGWDPEKASGFFGKLLGGGGGDIDLDASCIMLDADKKPLDLVWFRQLQSRDGAILHSGDNRTGEGAGDDETISVDLEKLPATVKYLVFTVNSFTGQNFEKVANAYCRIVDLGTRNELGRFDLSEKGQHTGVVMSYLSRTPSGWDFTAVGQATNGRTADDLVELAIGAVRA”, the “soluble on expression in E. coli” value was “not soluble”. In the case of “LTETGALFKLEVALLKDKVTLTLDTTGPSLFKRGYRIEKGGAPLKENMAAALVMLTNWRKDRPFYDPVCGSGTICIEAALIGHNIAPGFNRSFTCETWDWVDPAIFEKVRNEAEAKADYDVELDICGSDVDGRMIEVARANAEEVGLGDSITFKQLALKDFTTEKEYGVMVANPPYGERLGEEESVRRLYKEMGHVFRPLTTWSKYILTSDLAFEEYYGAKATKKRKLYNGALRTDLFQYWGTRPPRKPRED”, the “soluble on expression in E. coli” value is reported as “not soluble”. With “MAHHHHHHMFHGFPQVQVVSDDAPTGESIFAKDSDSHVELPPAKKVRISFPALTHLGSFSQDATCHSAVGGRLCGVQQGDTILITSVLPSLGASGDAEDERDDTAESKQQQKMYEKVKEMLRKECLDSYSVGYFIVSSACVNDPYSVVTADRLANLAIDGHPSVLLVYDPFRTGLMGKLYLRAFVPTDAFLDFSRKNKKTKKTDKKSGMQEEARLLRACSVPKQGVLREVKVEVEVDAYQLFCLNGIDIAPLPSNSTVHHSDSMADYKVALLESVQRNLSDLEGKLSRETSRNQRDENNVPPARGVDTMLALVQLREQAQHLEALCDGTLLISSLLRDL” the “soluble on expression in E. coli” value was “not soluble”. With “MSLTKVSSLGYPRLGENREWKKLIEAYWAGKVSKNDLFAGAKELRLDFLKKQLNAGLDLIPVGDFSLYDHILDLSVQFNIIPKRFAKEPIDIDLYFAIARGNKENVASSMKKWFNTNYHYIVPEWSKQRPKLNNNRLLDLYLEAREVVGDKAKPVITGPITYVALSTGVEDFTAAVKSLLPLYKQVFTELVKAGASYIQVDEPIFVTDEGKDYLQAAKAVYAYFAKEVPDAKFIFQTYFEGLIDSQVLSQLPVDAFGLDFVYGLEENLEAIKTGAFKGKEIFAGVIDGRNIWSSDFVKTSALLETIEEQSAALTIQPSCSLLHVPVTTKNETDLDPVLRNGLAFADEKLTEVKRLAEHLDGREDPAYDLHIAHFDALQAADFRNVKLEDLSRVATKRPSDFAKRRDIQQEKLHLPLLPTTTIGSFPQSREIRRTRLAWKRGDISDAEYKQFIQAEIERWIRIQEDLDLDVLVHGEFERVDMVEFFGQKLAGFTTTKFGWVQSYGSRAVKPPIIYGDVQHLEPITVEETVYAQSLTDRPVKGMLTGPITITNWSFERTDIPRDQLFNQIGLAIKDEIKLLENAGIAIIQVDEAALREGLPLRKSKQKAYLDDAVHAFHIATSSVKDETQIHTHMCYSKFDEIIDAIRALDADVISIETSRSHGDIIESFETAVYPLGIGLGVYDIHSPRVPTKEEVVANIERPLRQLSPTQFWVNPDCGLKTRQEPETIAALKVLVAATKEVRQKLGNEGHHHHHH” the “soluble on expression in E. coli” value was “soluble”. In the case of “MGSDKIHHHHHHVLADAVAWTARTLPVRPSVPVLAGMLLDADDVDGHQRLTLSSFDYEVSAQVSVDVDIDEPGRILVSGKLLAEIVRNLPPQTVEVSTDGAKVVVSCGSAKFTILTLPVEDYPTLPAMPALTGSVLSDTFAAAVSQVAVAAGRDDTLPMLTGVRIEIEGSTVTLVSTDRYRLAVRELTWTPEDPNVSAVALVPAKTLADTAKSLTGGAQISIALSTAENGGEGMIGFEGGGRRTTTRLLEGEFPKYRKLLPESFNSVAEVQKNEFIEAVKRVSLVAERNTPLRLSFTSDRLVLEAGTGEEAQAVEELSATLEGDDIQIAFNSTFLLDGLNAIESDVAHLQFTTSTKPAIITGKPADDGTASDYRYLIMPVRISN”, the “soluble on expression in E. coli” value is reported as “not soluble”. In the case of “SSNKEGSGGFRKRKHDNFPHNQRREGKDVNSSSPVMLAFKSFQQELDARHDKYERLVKLSRDITVESKRTIFLLHRITSAPDMEDILTESEIKLDGVRQKIFQVAQELSGEDMHQFHRAITTGLQEYVEAVSFQHFIKTRSLISMDEINKQLIFTTEDNGKENKTPSSDAQDKQFGTWRLRVTPVDYLLGVADLTGELMRMCINSVGNGDIDTPFEVSQFLRQVYDGFSFIGNTGPYEVSKKLYTLKQSLAKVENACYALKVRGSEIPKHMLADVFSVKTEMIDQEEGIS”, the “soluble on expression in E. coli” value is reported as “soluble”. In the case of “MSQRGLEALLRPKSIAVIGASMKPNRAGYLMMRNLLAGGFNGPVLPVTPAWKAVLGVLAWPDIASLPFTPDLAVLCTNASRNLALLEELGEKGCKTCIILSAPASQHEDLRACALRHNMRLLGPNSLGLLAPWQGLNASFSPVPIKRGKLAFISQSAAVSNTILDWAQQREMGFSYFIALGDSLDIDVDELLDYLARDSKTSAILLYLEQLSDARRFVSAARSASRNKPILVIKSGRSPAAQRLLNTTAGMDPAWDAAIQRAGLLRVQDTHELFSAVETLSHMRPLRGDRLMIISNGAAPAALALDALWSRNGKLATLSEETCQKLRDALPGHVAISNPLDLRDDASSEHYVKTLDILLHSQDFDALMVIHSPSAAAPATEIAQVLIEAVKHHPRSKYVSLLTNWCGEHSSQEARRLFSEAGLPTYRTPEGTITAFMHMVEYRRNQKQLRETPALPSNLTSNTAKAHLLLQQAIAEGATSLDTHEVQPILQSYGMNTLPTWIASDSTEAVHIAEQIGYPVALKLRSPDIPHKSEVQGVMLYLRTANEVQQAANAIFDRVKMTWPQARVHGLLVQSMANRAGAQELRVVVEHDPVFGPLIMLGEGGVEWRPEDQAVVALPPLNMNLARYLVIQGIKSKKIRARSALRPLDVAGLSQLLVQVSNLIVDCPEIQRLDIHPLLASGSEFTALDVTLDIAPFEGDNESRLAVRPYPHQLEEWVELKNGERCLFRPILPEDEPQLQQFISRVTKEDLYYRYFSEINEFTHEDLANMTQIDYDREMAFVAVRRIDQTEEILGVTRAISDPDNIDAEFAVLVRSDLKGLGLGRRLMEKLITYTRDHGLQRLNGITMPNNRGMVALARKLGFNVDIQLEEGIVGLTLNLAQREES”, the “soluble on expression in E. coli” value is reported as “not soluble”. In the case of “MSLEEQREILEQLKKTLQMLTVEPSKNNQIANEEKEKKENENSWCILEHNYEDIAQEFIDFIYKNPTTYHVVSFFAELLDKHNFKYLSEKSNWQDSIGEDGGKFYTIRNGTNLSAFILGKNWRAEKGVGVIGSHVDALTVKLKPVSFKDTAEGYGRIAVAPYGGTLNELWLDRDLGIGGRLLYKKKGTNEIKSALVDSTPLPVCRIPSLAPHFGKPAEGPFDKEDQTIPVIGFPSPDEEGNEPPTDDEKKSPLFGKHCIHLLRYVAKLAGVEVSELIQMDLDLFDVQKGTIGGIGKHFLFAPRLDDRLCSFAAMIALICYAKDVDTEESELFSTVTLYDNEEIGSLTRQGAKGGLLESVVERSSSAFTKKAVDLHTVWANSIILSADVNHLYNPNFPEVYLKNHFPVPNVGITLSLDPNGHMATDVVGTALVEELARRNGDKVQYFQIKNNSRSGGTIGPSLASQTGARTIDLGIAQLSMHSIRAATGSKDVGLGVKFFNGFFKHWRSVYDEFGELEGHHHHHH”, the “soluble on expression in E. coli” value is reported as “soluble”. In the case of “MTRHALAYVAGAYEHPLRHAPDKSVAQLHAESARGALDDAGLSFADVDGYFCAGDAGLGPAYMVDYLNLTPRHVDGTEIGGGSYLAQIGHAAHAIAAGKCSVALITLAGRPRSEGQATGTEPRIPGPDRPSAPWDSAYRWTIGTIYGNFARRHMHEYGTTSEQLAWVKVAASHHAQHNPNALLRKVYTVDDVLGSPMVADPLHRLDCCVITDGGGALVIVAPEVARSLNRPRIKVV”, the “soluble on expression in E. coli” value is reported as “not soluble”. For “MTIHHHGSAERKSIDDYSDIPRGEACKQLVEQLNRNLYSLNSNMQTTFKQMVHVETRIGHEISLLSSCLQENMSKCTMPYAPHEEQLVQLDSAKRNLKQLTRLLDARQIFDAEDSQSEKLKDRAIDDSLLPTLVAIGDNLKIIKELGAKPKFDAETYHKTKDRYLAWKGTEFAVKFDTPGGLDDIFDAFTTLNSVNDFYRLYQHHFDQSLNNLNKNSGIEDEKSLKEMGTVFVTKAAEHFRTHIGSLCKYCDENEAFTRLLDAWKNYIKNGTLEKLFEQSMENYNNYDLLSDLKSVVTKAYEEFETNTAGGPEDDEESIENIERIIVDGLMESAKKPLSEKLRSMVEPPPLNFRSVAEVMSSLENFAYLLREISHQLLEIYLEDEGREFMISILKPIFTDYTMRLCRMEDNSTPKVKLEEYLERIALAGQLSTIVEEYKDQTEIKNGLELKNAKKWMNERVKDAIRASHRFVTDKMPNHGSETYKESADMAKSALPTPQDFVVTATQNLLHLLRFWEEALANENTKVALIAHVMDINKESLETPDDDAIFAAILDRIASHVVKKLLQSINDVWLTDGKTATLSKGLVKEFLCDAEYLRDALVDLRAGTHDNLDSTINKLREQLKTMS”, the “soluble on expression in E. coli” value was “not soluble”. For “MGSDKIHHHHHHMNTLTDILNRPRKLRPECLLIVGDSNMGKTTIIHEFARQYYTKTVSDADMDLLSVTKPVLPILAPAKANVKELYINILNHFFVPFRASDPEAKLRNQAVHLMRKYETKMLIIDEIHNCLTGSAKLLPEVMNTLKNLSNELSLNIVGVGTREAITILHTDPQYASRFDVVNLPKWELNQDFLRLLVSYVRLLPLKKQSNLASKEIATLIFEVSGGNLGDLNRLLVECAKEAILQGDEEITYDIVHKFKWLKPTEGLRNIRNINLSLS”, the “soluble on expression in E. coli” value was “not soluble”.
